Measured values: patent US20210187002A1 (OSAKA UNIVERSITY, published 2021)

B1: LILRB1-Fc fusion protein (Fc fusion)
chain: GHLPKPTLWAEPGSVITQGSPVTLRCQGGQETQEYRLYREKKTAPWITRIPQELVKKGQFPIPSITWEHTGRYRCYYGSDTAGRSESSDPLELVVTGAYIKPTLSAQPSPVVNSGGNVTLQCDSQVAFDGFILCKEGEDEHPQCLNSQPHARGSSRAIFSVGPVSPSRRWWYRCYAYDSNSPYEWSLPSDLLELLVLGVSKKPSLSVQPGPIVAPEETLTLQCGSDAGYNRFVLYKDGERDFLQLAGAQPQAGLSQANFTLGPVSRSYGGQYRCYGAHNLSSEWSAPSDPLDILIAGQFYDRVSLSVQPGPTVASGENVTLLCQSQGWMQTFLLTKEGAADDPWRLRSTYQSQKYQAEFPMGPVTSAHAGTYRCYGSQSSKPYLLTHPSDPLELVVSGPSGGPSSPTTGPTSTSAGPEDQPLTPTGSDPQSGLGRHLGV
notes: Made in 293T cells and purified with Protein A. For flow cytometry it was complexed with an APC-labeled anti IgG Fc antibody; not shown: Fc part
B2: recombinant RIFIN protein (variable region of PF3D7_1254800 with His tag) (ligand)
chain: YETINAFIAKTIEELEGIPGITKLFGAKISQFVTPAVFRKPMSLVETILSEKKKLCLCAANKNELLCRGMNPNVPETLPKKIEVAVNEVLSSVNDTWATATTPTTFFTNP
notes: Used in solution, on plates and on latex or Luminex beads; also called RIFIN-1; RIFIN beads

What was measured:
[1] = target: T1, fusion protein containing the conserved region of RIFIN (PF3D7_1254800) and the transmembrane and … (Plasmodium falciparum); test: flow cytometry on transfected 293T cells
T1 construct: also called fusion protein containing a conserved region

[2] = target: leukocyte immunoglobulin-like receptor subfamily B member 1 (LILRB1) protein (human, UniProt Q8NHL6 24-650); test: flow cytometry on LILRB1 protein-expressing 293T cells, APC-labeled anti-His antibody

Binder	binding result [1]	binding result [2]
B1	no binding	–
B2	–	binds
